Data from PMC8260793, “A split protease-E. coli ClpXP system quantifies protein–protein interactions in Escherichia coli cells” (Communications Biology, 2021).
Each block holds one molecule with its values, some of them ahead of it.

Columns and labels:
[1] = target: Csy1 of Z. mobilis Type I-F CRISPR/Cas complex (Zymomonas mobilis); assay: split reporter (BiFC, NanoBiT); SPEC profiling of CRISPR/Cas effectors and Cas3 / Cas2-3 mutants in E. coli cells; sfGFP fluorescence by flow cytometry; interaction intensity normalized to cells expressing wt HRV 3 C protease
[2] = target: Csy4 of Z. mobilis Type I-F CRISPR/Cas complex; assay: SPEC system (split protease-E. coli ClpXP) in E. coli cells; details: parent: 100; read off a plot
[3] = target: Csy3 of Z. mobilis Type I-F CRISPR/Cas complex; assay: as above; details: parent: 100; read off a plot
[4] = target: Csy2 of Z. mobilis Type I-F CRISPR/Cas complex; assay: as above; details: parent: 100; read off a plot
[5] = target: Csy2 of Z. mobilis Type I-F CRISPR/Cas complex (Zymomonas mobilis); assay: split reporter (BiFC, NanoBiT); SPEC profiling of CRISPR/Cas effectors and Cas3 / Cas2-3 mutants in E. coli cells; sfGFP fluorescence by flow cytometry; interaction intensity normalized to cells expressing wt HRV 3 C protease
[6] = target: Cas1 of Z. mobilis Type I-F CRISPR/Cas complex (Zymomonas mobilis); assay: as above
[7] = target: Csy3 of Z. mobilis Type I-F CRISPR/Cas complex (Zymomonas mobilis); assay: as above
[8] = target: Csy4 of Z. mobilis Type I-F CRISPR/Cas complex (Zymomonas mobilis); assay: as above
[9] = target: Cas1 of Z. mobilis Type I-F CRISPR/Cas complex; assay: SPEC system (split protease-E. coli ClpXP) in E. coli cells; details: parent: 100; read off a plot
[10] = target: T1, Cas2 of E. coli K12 Type I-E CRISPR/Cas complex (E. coli K12, UniProt P45956 1-94); assay: split reporter (BiFC, NanoBiT); SPEC profiling of CRISPR/Cas effectors and Cas3 / Cas2-3 mutants in E. coli cells; sfGFP fluorescence by flow cytometry; interaction intensity normalized to cells expressing wt HRV 3 C protease; details: partners not purified
T1 construct: Cas2, effector of the type I-E CRISPR/Cas complex of E. coli K12; source: E. coli BL21(DE3) or BL21(DE3)-SPEC, expressed in the cells (IPTG induction)
T1 sequence (looked up): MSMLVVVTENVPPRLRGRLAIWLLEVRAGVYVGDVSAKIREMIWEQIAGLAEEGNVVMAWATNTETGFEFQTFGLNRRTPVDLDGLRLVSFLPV

[11] = target: T2, Cas5 of E. coli K12 Type I-E CRISPR/Cas complex (E. coli K12, UniProt Q46898 1-224); assay: as above; details: partners not purified
T2 construct: Cas5, effector of the type I-E CRISPR/Cas complex of E. coli K12; source: E. coli BL21(DE3) or BL21(DE3)-SPEC, expressed in the cells (IPTG induction)
T2 sequence (looked up): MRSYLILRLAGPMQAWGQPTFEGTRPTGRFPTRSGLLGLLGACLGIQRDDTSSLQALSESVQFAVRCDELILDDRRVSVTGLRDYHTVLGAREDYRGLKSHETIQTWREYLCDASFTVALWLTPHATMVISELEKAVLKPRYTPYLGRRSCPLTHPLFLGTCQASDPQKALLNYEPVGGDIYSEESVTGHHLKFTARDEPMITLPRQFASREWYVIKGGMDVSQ

[12] = target: T3, Cas11 of E. coli K12 Type I-E CRISPR/Cas complex (E. coli K12, UniProt P76632 1-160); assay: as above; details: partners not purified
T3 construct: Cas11, effector of the type I-E CRISPR/Cas complex of E. coli K12; source: E. coli BL21(DE3) or BL21(DE3)-SPEC, expressed in the cells (IPTG induction)
T3 sequence (looked up): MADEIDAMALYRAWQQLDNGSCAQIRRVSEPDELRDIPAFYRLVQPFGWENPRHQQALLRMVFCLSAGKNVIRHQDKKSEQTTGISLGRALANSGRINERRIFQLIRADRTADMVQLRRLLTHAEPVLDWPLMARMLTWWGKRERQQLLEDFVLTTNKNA

[13] = target: T4, Cas7 of E. coli K12 Type I-E CRISPR/Cas complex (E. coli K12, UniProt Q46899 1-363); assay: as above; details: partners not purified
T4 construct: Cas7, effector of the type I-E CRISPR/Cas complex of E. coli K12; source: E. coli BL21(DE3) or BL21(DE3)-SPEC, expressed in the cells (IPTG induction)
T4 sequence (looked up): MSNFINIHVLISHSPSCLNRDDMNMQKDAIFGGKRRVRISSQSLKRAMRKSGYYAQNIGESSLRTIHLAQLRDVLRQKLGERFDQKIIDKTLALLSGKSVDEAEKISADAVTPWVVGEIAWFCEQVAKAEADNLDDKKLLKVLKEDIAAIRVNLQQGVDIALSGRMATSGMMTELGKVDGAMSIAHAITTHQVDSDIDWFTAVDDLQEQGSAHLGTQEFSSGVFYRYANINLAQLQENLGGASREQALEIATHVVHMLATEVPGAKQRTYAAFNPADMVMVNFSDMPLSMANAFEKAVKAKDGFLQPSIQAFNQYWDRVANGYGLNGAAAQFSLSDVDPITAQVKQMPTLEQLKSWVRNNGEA

increase of the interaction over Cas2-3 wild type [1]: > 40%
Molecule: Cas2-3 K458N (Z. mobilis Type I-F) (natural protein)

percent of parent [2]: 110%
percent of parent [3]: 110%
Molecule: Cas2-3 of Z. mobilis Type I-F CRISPR/Cas complex K127A

normalized interaction intensity [5]: 21%
normalized interaction intensity [1]: 10%
Molecule: Cas2-3 K127A (Z. mobilis Type I-F) (natural protein)

percent of parent [2]: 110%
percent of parent [3]: 110%
Molecule: Cas2-3 of Z. mobilis Type I-F CRISPR/Cas complex H123A

increase of the interaction over Cas2-3 wild type [1]: > 40%
Molecule: Cas2-3 D608N (Z. mobilis Type I-F) (natural protein)

increase of the interaction over Cas2-3 wild type [1]: > 40%
Molecule: Cas2-3 S639A/T641A (Z. mobilis Type I-F) (natural protein)

normalized interaction intensity [5]: > 80%
normalized interaction intensity [7]: 14%
normalized interaction intensity [8]: > 80%
Molecule: Cas1 of Z. mobilis Type I-F CRISPR/Cas complex (natural protein)

normalized interaction intensity [10]: 56%
normalized interaction intensity [11]: > 80%
B3: Cas3 of E. coli K12 Type I-E CRISPR/Cas complex (natural protein, UniProt P38036 1-888, looked up)
chain: MEPFKYICHYWGKSSKSLTKGNDIHLLIYHCLDVAAVADCWWDQSVVLQNTFCRNEMLSKQRVKAWLLFFIALHDIGKFDIRFQYKSAESWLKLNPATPSLNGPSTQMCRKFNHGAAGLYWFNQDSLSEQSLGDFFSFFDAAPHPYESWFPWVEAVTGHHGFILHSQDQDKSRWEMPASLASYAAQDKQAREEWISVLEALFLTPAGLSINDIPPDCSSLLAGFCSLADWLGSWTTTNTFLFNEDAPSDINALRTYFQDRQQDASRVLELSGLVSNKRCYEGVHALLDNGYQPRQLQVLVDALPVAPGLTVIEAPTGSGKTETALAYAWKLIDQQIADSVIFALPTQATANAMLTRMEASASHLFSSPNLILAHGNSRFNHLFQSIKSRAITEQGQEEAWVQCCQWLSQSNKKVFLGQIGVCTIDQVLISVLPVKHRFIRGLGIGRSVLIVDEVHAYDTYMNGLLEAVLKAQADVGGSVILLSATLPMKQKQKLLDTYGLHTDPVENNSAYPLINWRGVNGAQRFDLLAHPEQLPPRFSIQPEPICLADMLPDLTMLERMIAAANAGAQVCLICNLVDVAQVCYQRLKELNNTQVDIDLFHARFTLNDRREKENRVISNFGKNGKRNVGRILVATQVVEQSLDVDFDWLITQHCPADLLFQRLGRLHRHHRKYRPAGFEIPVATILLPDGEGYGRHEHIYSNVRVMWRTQQHIEELNGASLFFPDAYRQWLDSIYDDAEMDEPEWVGNGMDKFESAECEKRFKARKVLQWAEEYSLQDNDETILAVTRDGEMSLPLLPYVQTSSGKQLLDGQVYEDLSHEQQYEALALNRVNVPFTWKRSFSEVVDEDGLLWLEGKQNLDGWVWQGNSIVITYTGDEGMTRVIPANPK
notes: Cas3, effector of the type I-E CRISPR/Cas complex of E. coli K12; source: E. coli BL21(DE3) or BL21(DE3)-SPEC, expressed in the cells (IPTG induction)

Further lines, the molecule ahead of its results:

Molecule: Cas2-3 of Z. mobilis Type I-F CRISPR/Cas complex D608N
percent of parent [2]: 110%
percent of parent [4]: 78%
percent of parent [3]: 110%

Molecule: Cas2-3 of Z. mobilis Type I-F CRISPR/Cas complex (natural protein)
normalized interaction intensity [5]: 88%
normalized interaction intensity [6]: 99%
normalized interaction intensity [7]: > 80%
normalized interaction intensity [1]: 63%
normalized interaction intensity [8]: > 80%

Molecule: Cas2-3 D124A (Z. mobilis Type I-F) (natural protein)
increase of the interaction over Cas2-3 wild type [1]: > 40%

Molecule: Cas2-3 of Z. mobilis Type I-F CRISPR/Cas complex K458N
percent of parent [2]: 110%
percent of parent [4]: 110%
percent of parent [3]: 120%
percent of parent [9]: 97%

Molecule: Cas2-3 of Z. mobilis Type I-F CRISPR/Cas complex S639A; T641A
percent of parent [2]: 110%
percent of parent [4]: 110%
percent of parent [3]: 110%

Molecule: Cas2-3 of Z. mobilis Type I-F CRISPR/Cas complex D124A
percent of parent [2]: 110%
percent of parent [3]: 110%
percent of parent [9]: 95%

Molecule: Cas2-3 H123A (Z. mobilis Type I-F) (natural protein)
increase of the interaction over Cas2-3 wild type [1]: > 40%

Molecule: Csy1 of Z. mobilis Type I-F CRISPR/Cas complex (natural protein)
normalized interaction intensity [5]: > 80%
normalized interaction intensity [8]: > 80%

B1: Cas1 of E. coli K12 Type I-E CRISPR/Cas complex (natural protein, UniProt Q46896 1-305, looked up)
chain: MTWLPLNPIPLKDRVSMIFLQYGQIDVIDGAFVLIDKTGIRTHIPVGSVACIMLEPGTRVSHAAVRLAAQVGTLLVWVGEAGVRVYASGQPGGARSDKLLYQAKLALDEDLRLKVVRKMFELRFGEPAPARRSVEQLRGIEGSRVRATYALLAKQYGVTWNGRRYDPKDWEKGDTINQCISAATSCLYGVTEAAILAAGYAPAIGFVHTGKPLSFVYDIADIIKFDTVVPKAFEIARRNPGEPDREVRLACRDIFRSSKTLAKLIPLIEDVLAAGEIQPPAPPEDAQPVAIPLPVSLGDAGHRSS
notes: Cas1, effector of the type I-E CRISPR/Cas complex of E. coli K12; source: E. coli BL21(DE3) or BL21(DE3)-SPEC, expressed in the cells (IPTG induction)
normalized interaction intensity [10]: 92%
normalized interaction intensity [11]: > 80%
normalized interaction intensity [12]: > 80%

B2: Cas6 of E. coli K12 Type I-E CRISPR/Cas complex (natural protein, UniProt Q46897 1-199, looked up)
chain: MYLSKVIIARAWSRDLYQLHQGLWHLFPNRPDAARDFLFHVEKRNTPEGCHVLLQSAQMPVSTAVATVIKTKQVEFQLQVGVPLYFRLRANPIKTILDNQKRLDSKGNIKRCRVPLIKEAEQIAWLQRKLGNAARVEDVHPISERPQYFSGDGKSGKIQTVCFEGVLTINDAPALIDLVQQGIGPAKSMGCGLLSLAPL
notes: Cas6, effector of the type I-E CRISPR/Cas complex of E. coli K12; source: E. coli BL21(DE3) or BL21(DE3)-SPEC, expressed in the cells (IPTG induction)
normalized interaction intensity [13]: > 80%
